Two molecules from US20160347843A1 (UNIVERSITY OF MASSACHUSETTS, published 2016) can be followed below.

For assay [1], the target named is T1, GST-1C (glutathione S-transferase fused upstream of the sFlt1-1-specific C-terminal peptide) (human, not fully specified).
T1 construct: Bacterially expressed screening antigen coated on ELISA plates; not shown: N-terminal glutathione S-transferase (GST) fusion partner
T1 chain: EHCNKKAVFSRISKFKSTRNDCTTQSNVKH
Description: ELISA of hybridoma cultures on coated GST-1C. How it is done: (§1) To determine reactivity of unique antibodies with sFlt1-1 and sFlt1-14, ELISA was employed. As described above, TRX-Exon14 and GST-1C peptides were expressed and purified from bacteria. ELISA plates were coated with either GST-1C (FIG. 2A) or TRX-Exon14 (FIG. 2B), blocked with BSA and a series of dilutions of each hybridoma supernatant containing mAb was incubated on the coated plates. Bound antibody was detected with anti-mouse alkaline phosphatase secondary antibody and the interaction developed with PNPP. Plates were read using a Molecular Devices Emax plate reader and antibodies with the desired specificity and highest affinity were selected for final ELISA production. These included mouse mAbs EX14-1 to detect sFlt1-14 and 1C-KLH-18 to detect sFlt1. […] A human anti sFLT antibody with properties described above (under Quantitative Capture ELISA) was also used to minimize background in the ELISAs.
(§2) To determine reactivity of unique antibodies with sFlt1-1. sFlt1-14, TRX-Exon14 (SEQ ID NO. 40) and GST-1C (SEQ ID NO. 38) isoforms, ELISA plates were coated with either GST-1C or TRX-Exon14, blocked with BSA and a series of dilutions of each hybridoma supernatant containing mAb (or purified mAb) was incubated on the coated plates. Bound antibody was detected with anti-mouse alkaline phosphatase secondary antibody (Jackson ImmunoResearch) and the interaction developed with pNPP. […]

The target of assay [2] is T2, recombinant human sFlt1-1 with C-terminal 6-histidine tag, expressed in CHO cells (human, UniProt P17948 27-656).
T2 construct: also called sFlt1_v1; sFlt1-i13
Put plainly: Octet QK (BLI), mAb captured on anti-murine biosensor, recombinant sFlt in solution. How it is done: (§3) Affinity of antibodies was determined using an Octet QK (ForteBio) biomolecular interaction instrument. The Octet QK performs similarly to Biacore in the measurement of antibody affinity. The Octet QK uses biosensors to assess mass increases/decreases and determine rates of association and disassociation. Anti-murine or anti-human biosensors (ForteBio) were used to capture mAb in PBS (5 ug/ml) to saturation and unbound mAb was washed away. The coated biosensors were introduced into a solution containing recombinant human sFlt1-1 or sFlt1-14 at which time Kₒₙ was determined. The sensor was then introduced into a buffer solution and the Koff determined. Using Kₒₙ and Koff an affinity (KD) was calculated.

Assay [3] concerns the target T3, recombinant human sFlt1-14 with C-terminal 6-histidine tag, expressed in CHO cells (human, UniProt P17948 27-705).
T3 construct: also called sFlt1_v2; sFlt1-e15a
Put plainly: western blot, reducing SDS-PAGE, nitrocellulose, probed with 1C-KLH-18, HRP anti-mouse secondary. Here is the method: Specificity of mAbs to sFIt1-14 and SFIt1-1 was investigated by western blot analysis on human amniotic fluid (FIG. 3). […] As standards, human recombinant sFlt1-1 or sFlt1-14 was loaded in final quantities of 200, 100 and 50 ng. After electrophoresis and transfer to nitrocellulose membranes, blots were blocked in 5% BSA and probed with EX14-1 (FIG. 3A), 1C-KLH-18 (FIG. 3B) or a commercially available mouse anti-VEGFR1 mAb (FIG. 3C) that recognized a single protein in amniotic fluid at the expected molecular weight (˜115 kDa) that corresponds to recombinant human sFlt1-14 and sFlt1-1, respectively. After washing, an HRP-labeled anti-mouse secondary antibody was used to detect bound mAb, developed and visualized using a Kodak Gel Logic imaging system. In addition, both mouse mAbs specifically recognized their recombinant sFlt1 isoform standards by western blot.

Assay [4] concerns the target T4, TRX-Exon14 (thioredoxin with 6-histidine tag fused upstream of the sFlt1-14-specific peptide) (human).
T4 construct: Bacterially expressed screening antigen coated on ELISA plates; not shown: N-terminal thioredoxin (TRX) with 6-histidine tag from pET32a(+)
T4 chain: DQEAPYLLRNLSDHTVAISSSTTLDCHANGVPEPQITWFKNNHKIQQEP
Description: ELISA of hybridoma cultures on coated TRX-Exon14. Here is the method: as §1, §2

Assay [5] concerns the target T2, recombinant human sFlt1-1 with …. Description: capture ELISA (human anti-sFlt capture, mouse mAb detection). From the text: To measure the concentration of total sFlt and its isoforms, sFlt1-1 and sFlt1-14, in biological fluid, a capture ELISA was developed. Using an anti-sFlt human antibody to capture total sFlt and mouse antibodies 10 ugR#9, EX14-1 or 1C-KLH-18 to detect bound sFlt, allows the efficient capture of sFlt in biological fluid without high background or interference (FIG. 4). […] The sFlt1-specific mAb, 1C-KLH-18, detects recombinant human sFlt1-1, but not sFlt1-14 (FIG. 4A,B). Conversely, the sFlt1-14-specific mAb, EX14-1, detects recombinant human sFlt1-14, but not sFlt1-1 (FIG. 4A,B). In addition, each mAb detects a protein in human amniotic fluid (known from the literature to contain both sFlt isoforms; FIG. 4C) and no background is observed in normal human sera, which should contain very low levels of sFlt isoforms (FIG. 4D).
A capture ELISA format was utilized to quantify the total sFlt, sFlt1-1 or sFlt1-14 concentration in solution. Briefly, high-binding ELISA plates (Costar) were coated with 1 ug/ml of an anti-sFlt human antibody overnight at 4° C. This anti-sFlt antibody was selected to provide a capture reagent that bound both sFlt1-1 and sFlt1-14 at an epitope in their homologous regions without interfering with the availability of the epitopes bound by the antibodies of the present disclosure. […]

The target in assay [6] is T3, recombinant human sFlt1-14 with …. Put plainly: Octet QK (BLI), mAb captured on anti-murine biosensor, recombinant sFlt in solution. How it is done: as §3
The target of assay [7] is T1, GST-1C (glutathione S-transferase fused …). Put plainly: direct ELISA, plate coated with GST-1C, anti-mouse alkaline phosphatase and pNPP, OD405. Here is the method: as §1, §2

T2 sequence (P17948 other isoform, or with tags, fused parts or gaps): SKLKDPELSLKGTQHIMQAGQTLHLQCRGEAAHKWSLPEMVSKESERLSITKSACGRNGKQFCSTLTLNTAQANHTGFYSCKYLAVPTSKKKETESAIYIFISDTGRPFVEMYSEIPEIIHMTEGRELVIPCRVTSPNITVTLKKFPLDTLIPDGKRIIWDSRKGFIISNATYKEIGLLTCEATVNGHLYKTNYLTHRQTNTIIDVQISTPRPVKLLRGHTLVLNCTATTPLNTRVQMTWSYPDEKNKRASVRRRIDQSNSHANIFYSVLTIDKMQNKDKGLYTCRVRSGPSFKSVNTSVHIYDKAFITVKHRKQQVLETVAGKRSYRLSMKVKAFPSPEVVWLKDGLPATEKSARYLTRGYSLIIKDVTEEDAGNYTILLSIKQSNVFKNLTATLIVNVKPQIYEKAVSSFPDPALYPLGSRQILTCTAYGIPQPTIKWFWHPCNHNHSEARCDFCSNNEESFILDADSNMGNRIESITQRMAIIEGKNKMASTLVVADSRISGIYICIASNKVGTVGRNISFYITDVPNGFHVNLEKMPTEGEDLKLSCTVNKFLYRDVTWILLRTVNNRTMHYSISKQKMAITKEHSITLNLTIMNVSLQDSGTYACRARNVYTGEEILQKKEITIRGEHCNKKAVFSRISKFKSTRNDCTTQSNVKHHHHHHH
T3 sequence (P17948 other isoform, or with tags, fused parts or gaps): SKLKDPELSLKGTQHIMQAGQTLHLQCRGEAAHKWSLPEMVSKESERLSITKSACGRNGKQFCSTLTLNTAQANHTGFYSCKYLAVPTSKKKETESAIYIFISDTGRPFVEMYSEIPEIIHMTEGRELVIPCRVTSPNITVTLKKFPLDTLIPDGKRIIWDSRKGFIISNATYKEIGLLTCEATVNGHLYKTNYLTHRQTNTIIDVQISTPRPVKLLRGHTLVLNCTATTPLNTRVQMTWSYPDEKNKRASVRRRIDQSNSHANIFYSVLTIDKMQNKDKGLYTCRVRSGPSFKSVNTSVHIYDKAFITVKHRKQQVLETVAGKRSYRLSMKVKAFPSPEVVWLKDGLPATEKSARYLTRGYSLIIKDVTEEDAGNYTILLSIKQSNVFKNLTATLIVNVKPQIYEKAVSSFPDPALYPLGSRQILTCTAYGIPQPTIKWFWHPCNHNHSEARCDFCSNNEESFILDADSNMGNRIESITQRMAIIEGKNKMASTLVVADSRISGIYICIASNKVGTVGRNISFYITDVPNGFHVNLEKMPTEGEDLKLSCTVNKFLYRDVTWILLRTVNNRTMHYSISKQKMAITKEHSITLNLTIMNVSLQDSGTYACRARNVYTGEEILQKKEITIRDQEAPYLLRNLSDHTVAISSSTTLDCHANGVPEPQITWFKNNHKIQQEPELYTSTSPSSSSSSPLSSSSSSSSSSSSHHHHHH

B1: mouse mAb 1C-KLH-18 (antibody, V domains shown)
VH: EVQLQQSGAELVRPGASVKLSCTASGVNIKDDYMNWVNQRPEQGLEWIGWIDPENGDTEYASKFQGKATITADTSSNTAYLQLSSLTSEDTAVYYCAAGYDYFPFVYWGQGTLVAVSA
VL: DVLMSQTPLSLPVSLGDQASISCRSSQNIVHSNGNTYLEWYLQKPGQSPKLLIHKVSNRFSGVPDRFSGSGSGTDFTLKISRVEAEDLGVYYCFQGSHVPFTFGSGTKLEKK
notes: Murine hybridoma mAb with a kappa light chain (VK); It was used as hybridoma supernatant or Protein A purified mAb; also called sFlt1-specific mAb; sFlt1-1-specific mAb
Consider B1, for which the binding result was “binds” in assay [1] and “no binding (tested: 200 ng per lane)” in assay [3]. In assay [2], the dissociation constant Kd was determined as 4.3 nM.

B2: mouse mAb EX14-1 (antibody, V domains shown)
VH: QIQLVQSGPELKKPGETVKISCTTSGYIFTTSGMSWVKQAPGKGLQWMGWINTYSGEPTYADDFKGRFAFSLETSASTAYLHINDLKNEDTATYFCARSRNNYEGFAYWGQGTLVTVSV
VL: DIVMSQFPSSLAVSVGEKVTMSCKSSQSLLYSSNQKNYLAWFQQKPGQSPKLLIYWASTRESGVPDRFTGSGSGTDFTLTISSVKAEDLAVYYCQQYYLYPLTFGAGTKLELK
notes: Murine hybridoma mAb with a kappa light chain (VK); also called sFlt1-14-specific mAb
For B2, the binding result in assay [4] is on record as “binds”; in assay [5] it was “no binding”; in assay [7], “no binding”. Besides, in assay [6], the Kd was determined as 39.5 nM.
